Three molecules from patent US20160031974A1 (UCB, published 2016) can be followed below.

One assay concerns the target T1, Human Serum Albumin (human, UniProt P02768 25-609).
T1 construct: also called HSA; HAS [sic]
Put plainly: SPR (BIAcore T200), Fab-Fv captured by anti-human F(ab′)2, albumin as analyte; average of 3. The protocol: (§1) BIA (Biamolecular Interaction Analysis) was performed using a BIAcore T200 (GE Healthcare). Affinipure F(ab′)₂ Fragment goat anti-human IgG, F(ab′)₂ fragment specific (Jackson ImmunoResearch) was immobilised on a CM5 Sensor Chip via amine coupling chemistry to a capture level of ≈5000 response units (RUs). HBS-EP buffer (10 mM HEPES pH 7.4, 0.15 M NaCl, 3 mM EDTA, 0.05% Surfactant P20, GE Healthcare) was used as the running buffer with a flow rate of 10 μL/min. A 10 μL injection of Fab-Fv at 0.75 μg/mL was used for capture by the immobilised anti-human IgG-F(ab′)₂. Human Serum Albumin (HSA), Mouse Serum albumin (MSA) and Cynomolgus Serum Albumin (CSA) was titrated over the captured Fab-Fv at various concentrations (50 nM to 6.25 nM) at a flow rate of 30 μL/min. The surface was regenerated by 2×10 μL injection of 50 mM HCl, followed by a 5 μL injection of 5 mM NaOH at a flowrate of 10 μL/min. Background subtraction binding curves were analysed using the T200evaluation software (version 1.0) following standard procedures. Kinetic parameters were determined from the fitting algorithm.
(In SPR one partner is held on a chip, and binding of the other changes the refractive index at the surface.)

For the next assay, the target named is T2, Mouse Serum albumin (mouse, UniProt P07724 25-608).
T2 construct: also called MSA
The description is as above. The protocol: as §1

The target of another assay is T3, Cynomolgus Serum Albumin (cynomolgus, UniProt A2V9Z4 25-608).
T3 construct: also called CSA
Described as above. The protocol: as §1

Assay [1] deals with T4, Human OX40 expressed on the cell surface (activated human CD4+ OX40+ T cells) (human, UniProt P43489 29-277).
T4 sequence (looked up): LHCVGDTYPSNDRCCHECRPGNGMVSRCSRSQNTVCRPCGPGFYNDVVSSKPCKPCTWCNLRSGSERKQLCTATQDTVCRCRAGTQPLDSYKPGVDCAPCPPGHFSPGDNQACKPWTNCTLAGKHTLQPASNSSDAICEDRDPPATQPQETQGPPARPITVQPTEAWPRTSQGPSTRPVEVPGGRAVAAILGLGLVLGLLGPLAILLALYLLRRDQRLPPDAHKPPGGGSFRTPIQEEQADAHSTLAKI
Put plainly: cell-based or functional assay.

Assay [2] has as its target T4, Human OX40 expressed on the cell …. Briefly: cell-based or functional assay. The source holds these as a separate data set.
Assay [3] shares this target. Put plainly: flow cytometry saturation binding on activated human CD4+ OX40+ T cells, no HSA. On the procedure:
(§2) Specific binding of antibody to receptor at equilibrium across a range of antibody concentrations was used to determine KD, assuming that only a very small fraction of antibody was bound to receptor at any point on the binding curve.
(§3) PBMC were isolated by separation on a Ficoll gradient and activated with 4 μg/mL PHA-L for 3 days at 37° C., 5% CO₂, 100% humidity. Following this, CD4⁺ T cells were isolated by negative selection using magnetic beads (CD4⁺ T cell Isolation Kit II for Human; Miltenyi Biotec). Approximately 1×10⁵ cells were incubated in the presence of antibody in either Facs buffer (PBS/0.2% BSA/0.09% NaN3) or Facs buffer supplemented with 5% HSA, at 4° C. The final concentration of the antibody ranged from 48 nM-0.0005 nM. The cells were washed in PBS prior to analysis by flow cytometry using a FACScalibur (Becton Dickinson). […] The number of moles of bound antibody was calculated by using interpolated values from a standard curve generated from beads comprised of differing but known amounts of fluorescent dye. Geometric mean fluorescence values were determined in the flow cytometric analyses of cells and beads. Non-specific binding was subtracted from the A26 Fab-Fv values and the specific binding curve thus generated analysed by non-linear regression using a one-site binding equation (Graphpad Prism®) to determine the KD.
(In general: A flow cytometer gives signals particle by particle.)

The target is the same in assay [4]. Put plainly: flow cytometry saturation binding on activated human CD4+ OX40+ T cells, with 5% HSA. On the procedure:
as §2, §3

Assay [5] deals with T5, Human OX40 (soluble analyte in BIAcore) (human, UniProt P43489 29-214, limits assumed).
T5 construct: also called hOX40
T5 sequence (looked up): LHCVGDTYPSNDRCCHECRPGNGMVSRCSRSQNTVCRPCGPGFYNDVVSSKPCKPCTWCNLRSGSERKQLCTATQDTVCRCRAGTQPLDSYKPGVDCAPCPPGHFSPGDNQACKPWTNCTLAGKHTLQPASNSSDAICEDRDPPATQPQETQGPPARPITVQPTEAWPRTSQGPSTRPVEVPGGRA
Briefly: SPR (BIAcore T200), antibody captured by anti-human F(ab′)2, human OX40 as analyte; average of 4. The protocol: as §1, with “of A26 Fab′” for “of Fab-Fv”, “at 0.5 μg/mL or A26Fab-dsFv at 1” for “at 0.75”, “Human OX40” for “Human Serum Albumin (HSA), Mouse Serum albumin (MSA) and Cynomolgus Serum Albumin (CSA)”, “captured A26” for “captured Fab-Fv”, “concentrations (25” for “concentrations (50”, “to 1.5625” for “to 6.25”

The target in assay [6] is T4, Human OX40 expressed on the cell …. Briefly: flow cytometry competition on activated human CD4+OX40+ T cells; competitor OX40L (biotinylated CD252 muCD8) at 2 µg/mL. The protocol:
(§4) The capacity of A26 Fab-dsFv to block the interaction between cell-surface expressed OX40 and recombinant OX40L was measured using a flow cytometry-based ligand blocking assay. Briefly, activated human CD4⁺OX40⁺ T cells were pre-incubated with a titration of A26 Fab-Fv. Recombinant OX40L was subsequently added to the cells and allowed to bind in the presence of A26 Fab-dsFv. The proportion of OX40L bound was then detected by flow cytometry using a labelled secondary reagent.
(§5) PBMC were isolated by separation on a Ficoll gradient and activated with 4 μg/mL PHA-L (Sigma) for 3 days at 37° C., 5% CO₂, 100% humidity. CD4⁺ T cells were then purified from the culture by negative selection using MACS columns (Miltenyi Biotech, CD4⁺ T cell isolation kit II). 2×10⁵ CD4⁺ T cells were incubated in the presence of A26 Fab-dsFv (final concentration range 10 μg/mL-0.000056 μg/mL (136.6 nM-0.000765 nM)) for 30 minutes at 4° C. OX40L (biotinylated CD252 muCD8, Ancell) was added at a final concentration of 2 μg/mL and incubated for a further 30 minutes at 4° C. Cells were washed and OX40L binding detected by incubation with PE-labelled streptavadin (Jackson Immunoresearch) prior to analysis by flow cytometry using a FACS Canto (Becton Dickinson). A matched non-OX40 binding Fab-dsFv was used as a control. The inhibition curve was analysed by non-linear regression (Graphpad Prism®) to determine the IC₅₀. […]

Assay [7] has the same target. Put plainly: flow cytometry binding on activated human CD4+ OX40+ T cells in 5% HSA, % maximal binding, mean of 4 or 5 donors. The protocol: Binding of AlexaFluor488-labelled A26 Fab-Fv to activated human CD4⁺0 X40⁺ T cells was measured by flow cytometry across a 5-log concentration range.
PBMC were isolated by separation on a Ficoll gradient and activated with 4 μg/mL PHA-L for 3 days at 37° C., 5% CO₂, 100% humidity. Following this, CD4⁺ T cells were isolated by negative selection using magnetic beads (CD4⁺ T cell Isolation Kit II for Human; Miltenyi Biotec). Approximately 1×10⁵ cells were incubated in the presence of antibody in either Facs buffer (PBS/0.2% BSA/0.09% NaN3) or Facs buffer supplemented with 5% HSA, at 4° C. The final concentration of the antibody ranged from 48 nM-0.0005 nM. The cells were washed in PBS prior to analysis by flow cytometry using a FACScalibur (Becton Dickinson). Titration data sets were also produced for isotype control antibodies for each A26 format to determine non specific binding. The number of moles of bound antibody was calculated by using interpolated values from a standard curve generated from beads comprised of differing but known amounts of fluorescent dye. Geometric mean fluorescence values were determined in the flow cytometric analyses of cells and beads. Non-specific binding was subtracted from the A26 Fab-Fv values and the specific binding curve thus generated analysed by non-linear regression using a one-site binding equation (Graphpad Prism®) to determine the KD.

For assay [8] the target is unchanged. Briefly: flow cytometry ligand-blocking assay on activated human CD4+ OX40+ T cells; blocked ligand: recombinant OX40L (biotinylated CD252 muCD8). The protocol: as §4, §5

B1: A26 Fab-dsFv (645gH5gL4) (bispecific antibody)
heavy: EVQLVESGGGLVQPGGSLRLSCAASGFTFTNYGIHWIRQAPGKGLEWVASISPSGGLTYYRDSVKGRFTISRDDAKNSPYLQMNSLRAEDTAVYYCATGGEGIFDYWGQGTLVTVSSASTKGPSVFPLAPSSKSTSGGTAALGCLVKDYFPEPVTVSWNSGALTSGVHTFPAVLQSSGLYSLSSVVTVPSSSLGTQTYICNVNHKPSNTKVDKKVEPKSCSGGGGSGGGGTGGGGSEVQLLESGGGLVQPGGSLRLSCAVSGIDLSNYAINWVRQAPGKCLEWIGIIWASGTTFYATWAKGRFTISRDNSKNTVYLQMNSLRAEDTAVYYCARTVPGYSTAPYFDLWGQGTLVTVSS
light: DIQMTQSPSSLSASVGDRVTITCRATQSIYNALAWYQQKPGKAPKLLIYNANTLHTGVPSRFSASGSGTDSTLTISSLQPEDFATYYCQQYYDYPLTFGGGTKVEIKRTVAAPSVFIFPPSDEQLKSGTASVVCLLNNFYPREAKVQWKVDNALQSGNSQESVTEQDSKDSTYSLSSTLTLSKADYEKHKVYACEVTHQGLSSPVTKSFNRGECGGGGSGGGGSGGGGSDIQMTQSPSSVSASVGDRVTITCQSSPSVWSNFLSWYQQKPGKAPKLLIYEASKLTSGVPSRFSGSGSGTDFTLTISSLQPEDFATYYCGGGYSSISDTTFGCGTKVEIKRT
notes: also called A26 Fab-Fv; Fab-Fv
Take B1: the dissociation constant Kd (in general, the concentration at which binding is half-saturated) with Human Serum Albumin came to 2.93 nM; in the assay with Mouse Serum albumin, 4.16 nM; in the assay with Cynomolgus Serum Albumin, 2.66 nM. Also, the koff (commonly the rate constant with which the complex falls apart) in the assay with Human Serum Albumin came out at 0.000163 s⁻¹; with Mouse Serum albumin, 0.000368 s⁻¹; with Cynomolgus Serum Albumin it was 0.000189 s⁻¹. Also, the kon (in general, the rate constant with which the complex forms) with Human Serum Albumin was 58400 M⁻¹ s⁻¹; with Mouse Serum albumin, 88600 M⁻¹ s⁻¹; with Cynomolgus Serum Albumin, 71000 M⁻¹ s⁻¹.

B2: A26 Fab′-PEG (A26 Fab-40K PEG′ described in WO2010/096418) (Fab, V domains shown)
VH: EVQLVESGGGLVQPGGSLRLSCAASGFTFTNYGIHWIRQAPGKGLEWVASISPSGGLTYYRDSVKGRFTISRDDAKNSPYLQMNSLRAEDTAVYYCATGGEGIFDYWGQGTLVTVSS
VL: DIQMTQSPSSLSASVGDRVTITCRATQSIYNALAWYQQKPGKAPKLLIYNANTLHTGVPSRFSASGSGTDSTLTISSLQPEDFATYYCQQYYDYPLTFGGGTKVEIKR
modifications: 40K PEG; site of attachment not given
For the molecule B2, in assay [1], the “Inhibition of IL-5 Production EC50 (human HDM in vitro assay)” value came out at 1.31 nM and the “Inhibition of IL-13 Production EC50 (human HDM in vitro assay)” value stood at 0.928 nM. The “EC50 for inhibition of human MLR proliferative response” value in [2] stood at 0.88 nM. The same molecule registered a Kd in [3] of 0.322 nM. The molecule further came in with a Kd in assay [4] of 0.23 nM. In assay [5], this molecule registered a dissociation constant (Kd) of 0.0484 nM, a koff of 1.12e-05 s⁻¹ and a kon of 233000 M⁻¹ s⁻¹. In assay [6], the EC50 (usually the midpoint of the concentration-response curve) was found to be 0.739 nM. The EC50 (read off the curve) (usually the concentration at which the effect is half-maximal) in assay [7] was approximately 0.2 nM. In addition, in assay [8], the “IC50 (read off the curve)” value is approximately 0.7 nM.

B3: A26 Fab′ (Fab, V domains shown)
VH: B2 VH
VL: B2 VL
For B3, in assay [1], the “Inhibition of IL-5 Production EC50 (human HDM in vitro assay)” value was determined as 0.68 nM and the “Inhibition of IL-13 Production EC50 (human HDM in vitro assay)” value amounted to 0.335 nM. Besides, in assay [2], the “EC50 for inhibition of human MLR proliferative response” value is 0.25 nM. In [3], this molecule gave a Kd of 0.085 nM. For the same molecule, the Kd in assay [4] was 0.068 nM. In [5], this molecule showed a Kd not above 0.0468 nM, a dissociation rate constant (koff) not above 1e-05 s⁻¹ and an on-rate (kon) of 218000 M⁻¹ s⁻¹. This molecule also showed an EC50 in assay [6] of 0.242 nM. Further, in [7], the “EC50 (read off the curve)” value was approximately 0.09 nM. Moreover, the “IC50 (read off the curve)” value in assay [8] is approximately 0.3 nM.
